Data from article PMC4899722.

Key:
[1] = target: ASIC1a-2a-1a concatamer (rat) (UniProt P55926)
[2] = target: ASIC1a-2a-2a concatamer (rat) (UniProt P55926)
[3] = target: heteromeric ASIC1a/2a (oocytes co-expressing ASIC1a and ASIC2a) (rat) (UniProt P55926)

## psalmotoxin 1 (PcTx1) (from UniProt P60514 1-40) (peptide)
[1]
  current left after 50 nM PcTx1 in the conditioning solution (pH 6.95), activation with pH 4.0, two-electrode voltage clamp in Xenopus oocytes; percent of the first current amplitude: 15.7%
[2]
  current left after 50 nM PcTx1 in the conditioning solution (pH 6.95), activation with pH 4.0, two-electrode voltage clamp in Xenopus oocytes; percent of the first current amplitude: 64.8%
[3]
  current left after 50 nM PcTx1 in the conditioning solution (pH 6.95), activation with pH 4.0, two-electrode voltage clamp in Xenopus oocytes; percent of the first current amplitude: 66.5%
